Reference: PMC10783497
“And” between values parts separate entries of the source, which are not always exact repeats. Equal values may be shown once.

Biological target: streptavidin (on Sera-Mag magnetic microparticles) (UniProt P22629)
Experiment: magnetic bead pull-down, FAM fluorescence of eluted aptamer
Conditions: 1X PBS, or 2 M NaCl, or 2 M CDHP with 1X PBS; 90 min at room temperature; elution in 250 mM NaCl, 500 mM Tris-HCl pH 8.5

Chain of streptavidin (on Sera-Mag magnetic microparticles) (P22629 25-183): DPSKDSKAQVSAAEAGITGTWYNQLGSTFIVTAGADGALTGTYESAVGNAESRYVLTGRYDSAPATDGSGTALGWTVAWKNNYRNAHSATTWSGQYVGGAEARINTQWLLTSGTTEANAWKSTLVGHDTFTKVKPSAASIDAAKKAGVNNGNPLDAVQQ

ATTGACCGCTGTGTGACGCAACACTCAAT [St-21-1 aptamer]
Kd: 94.5 nM and 75.4 nM and 70 nM
